Patent publication US20110166062A1 (INDIANA UNIVERSITY RESEARCH AND TECHNOLOGY, published 2011)
Bridges are numbered along the chain shown (N, C = ends). Where no end group is shown, it is not given here.

T1: GIP receptor (UniProt P48546 22-466)
T1 sequence (looked up): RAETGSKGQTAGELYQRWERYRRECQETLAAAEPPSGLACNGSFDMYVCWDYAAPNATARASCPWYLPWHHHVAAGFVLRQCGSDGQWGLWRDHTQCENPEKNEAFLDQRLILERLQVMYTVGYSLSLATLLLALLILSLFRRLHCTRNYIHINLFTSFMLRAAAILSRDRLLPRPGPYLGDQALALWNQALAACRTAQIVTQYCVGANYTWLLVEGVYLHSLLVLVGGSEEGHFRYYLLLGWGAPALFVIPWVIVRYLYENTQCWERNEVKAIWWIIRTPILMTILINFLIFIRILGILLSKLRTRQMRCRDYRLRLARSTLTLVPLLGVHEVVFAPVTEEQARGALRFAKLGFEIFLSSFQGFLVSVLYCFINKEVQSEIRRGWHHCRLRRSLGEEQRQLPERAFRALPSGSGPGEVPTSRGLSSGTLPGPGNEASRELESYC

B1: mt-151 (peptide)
peptide: YSQGTFTSDYSKYLDEQAAKEFIAWLLAGGPSSGAPPPS-NH2
modifications: lactam 16-20; N-terminus assumed
SMILES: CC[C@H](C)[C@H](NC(=O)[C@H](Cc1ccccc1)NC(=O)[C@H](CCC(=O)O)NC(=O)[C@@H]1CCCCNC(=O)CC[C@H](NC(=O)[C@H](CC(=O)O)NC(=O)[C@H](CC(C)C)NC(=O)[C@H](Cc2ccc(O)cc2)NC(=O)[C@H](CCCCN)NC(=O)[C@H](CO)NC(=O)[C@H](Cc2ccc(O)cc2)NC(=O)[C@H](CC(=O)O)NC(=O)[C@H](CO)NC(=O)[C@@H](NC(=O)[C@H](Cc2ccccc2)NC(=O)[C@@H](NC(=O)CNC(=O)[C@H](CCC(N)=O)NC(=O)[C@H](CO)NC(=O)[C@@H](N)Cc2ccc(O)cc2)[C@@H](C)O)[C@@H](C)O)C(=O)N[C@@H](CCC(N)=O)C(=O)N[C@@H](C)C(=O)N[C@@H](C)C(=O)N1)C(=O)N[C@@H](C)C(=O)N[C@@H](Cc1c[nH]c2ccccc12)C(=O)N[C@@H](CC(C)C)C(=O)N[C@@H](CC(C)C)C(=O)N[C@@H](C)C(=O)NCC(=O)NCC(=O)N1CCC[C@H]1C(=O)N[C@@H](CO)C(=O)N[C@@H](CO)C(=O)NCC(=O)N[C@@H](C)C(=O)N1CCC[C@H]1C(=O)N1CCC[C@H]1C(=O)N1CCC[C@H]1C(=O)N[C@@H](CO)C(N)=O
B2: mt-145 (peptide)
peptide: YAQGTFISDYSKYLDEQAAKEFVNWLLAGGPSSGAPPPS-NH2
modifications: lactam 16-20; N-terminus assumed
SMILES: CC[C@H](C)[C@H](NC(=O)[C@H](Cc1ccccc1)NC(=O)[C@@H](NC(=O)CNC(=O)[C@H](CCC(N)=O)NC(=O)[C@H](C)NC(=O)[C@@H](N)Cc1ccc(O)cc1)[C@@H](C)O)C(=O)N[C@@H](CO)C(=O)N[C@@H](CC(=O)O)C(=O)N[C@@H](Cc1ccc(O)cc1)C(=O)N[C@@H](CO)C(=O)N[C@@H](CCCCN)C(=O)N[C@@H](Cc1ccc(O)cc1)C(=O)N[C@@H](CC(C)C)C(=O)N[C@@H](CC(=O)O)C(=O)N[C@H]1CCC(=O)NCCCC[C@@H](C(=O)N[C@@H](CCC(=O)O)C(=O)N[C@@H](Cc2ccccc2)C(=O)N[C@H](C(=O)N[C@@H](CC(N)=O)C(=O)N[C@@H](Cc2c[nH]c3ccccc23)C(=O)N[C@@H](CC(C)C)C(=O)N[C@@H](CC(C)C)C(=O)N[C@@H](C)C(=O)NCC(=O)NCC(=O)N2CCC[C@H]2C(=O)N[C@@H](CO)C(=O)N[C@@H](CO)C(=O)NCC(=O)N[C@@H](C)C(=O)N2CCC[C@H]2C(=O)N2CCC[C@H]2C(=O)N2CCC[C@H]2C(=O)N[C@@H](CO)C(N)=O)C(C)C)NC(=O)[C@H](C)NC(=O)[C@H](C)NC(=O)[C@H](CCC(N)=O)NC1=O
B3: mt-142 (peptide)
peptide: YAEGTFTSDYSIYMDEQAAKEFVNWLLAGGPSSGAPPPS-NH2
modifications: lactam 16-20; N-terminus assumed
SMILES: CC[C@H](C)[C@H](NC(=O)[C@H](CO)NC(=O)[C@H](Cc1ccc(O)cc1)NC(=O)[C@H](CC(=O)O)NC(=O)[C@H](CO)NC(=O)[C@@H](NC(=O)[C@H](Cc1ccccc1)NC(=O)[C@@H](NC(=O)CNC(=O)[C@H](CCC(=O)O)NC(=O)[C@H](C)NC(=O)[C@@H](N)Cc1ccc(O)cc1)[C@@H](C)O)[C@@H](C)O)C(=O)N[C@@H](Cc1ccc(O)cc1)C(=O)N[C@@H](CCSC)C(=O)N[C@@H](CC(=O)O)C(=O)N[C@H]1CCC(=O)NCCCC[C@@H](C(=O)N[C@@H](CCC(=O)O)C(=O)N[C@@H](Cc2ccccc2)C(=O)N[C@H](C(=O)N[C@@H](CC(N)=O)C(=O)N[C@@H](Cc2c[nH]c3ccccc23)C(=O)N[C@@H](CC(C)C)C(=O)N[C@@H](CC(C)C)C(=O)N[C@@H](C)C(=O)NCC(=O)NCC(=O)N2CCC[C@H]2C(=O)N[C@@H](CO)C(=O)N[C@@H](CO)C(=O)NCC(=O)N[C@@H](C)C(=O)N2CCC[C@H]2C(=O)N2CCC[C@H]2C(=O)N2CCC[C@H]2C(=O)N[C@@H](CO)C(N)=O)C(C)C)NC(=O)[C@H](C)NC(=O)[C@H](C)NC(=O)[C@H](CCC(N)=O)NC1=O
B4: mt-127 (peptide)
peptide: YSQGTFTSDYSKYLDEQAAKEFVNWLLAGGPSSGAPPPS-NH2
modifications: lactam 16-20; N-terminus assumed
SMILES: CC(C)C[C@H](NC(=O)[C@H](CC(C)C)NC(=O)[C@H](Cc1c[nH]c2ccccc12)NC(=O)[C@H](CC(N)=O)NC(=O)[C@@H](NC(=O)[C@H](Cc1ccccc1)NC(=O)[C@H](CCC(=O)O)NC(=O)[C@@H]1CCCCNC(=O)CC[C@H](NC(=O)[C@H](CC(=O)O)NC(=O)[C@H](CC(C)C)NC(=O)[C@H](Cc2ccc(O)cc2)NC(=O)[C@H](CCCCN)NC(=O)[C@H](CO)NC(=O)[C@H](Cc2ccc(O)cc2)NC(=O)[C@H](CC(=O)O)NC(=O)[C@H](CO)NC(=O)[C@@H](NC(=O)[C@H](Cc2ccccc2)NC(=O)[C@@H](NC(=O)CNC(=O)[C@H](CCC(N)=O)NC(=O)[C@H](CO)NC(=O)[C@@H](N)Cc2ccc(O)cc2)[C@@H](C)O)[C@@H](C)O)C(=O)N[C@@H](CCC(N)=O)C(=O)N[C@@H](C)C(=O)N[C@@H](C)C(=O)N1)C(C)C)C(=O)N[C@@H](C)C(=O)NCC(=O)NCC(=O)N1CCC[C@H]1C(=O)N[C@@H](CO)C(=O)N[C@@H](CO)C(=O)NCC(=O)N[C@@H](C)C(=O)N1CCC[C@H]1C(=O)N1CCC[C@H]1C(=O)N1CCC[C@H]1C(=O)N[C@@H](CO)C(N)=O
B5: mt-146 (peptide)
peptide: YAQGTFISDYSKYLDEQAAKEFVNWLLAGGPSSGAPPPS-NH2
modifications: lactam 16-20; N-terminus assumed
SMILES: CC[C@H](C)[C@H](NC(=O)[C@H](Cc1ccccc1)NC(=O)[C@@H](NC(=O)CNC(=O)[C@H](CCC(N)=O)NC(=O)[C@H](C)NC(=O)[C@@H](N)Cc1ccc(O)cc1)[C@@H](C)O)C(=O)N[C@@H](CO)C(=O)N[C@@H](CC(=O)O)C(=O)N[C@@H](Cc1ccc(O)cc1)C(=O)N[C@@H](CO)C(=O)N[C@@H](CCCCN)C(=O)N[C@@H](Cc1ccc(O)cc1)C(=O)N[C@@H](CC(C)C)C(=O)N[C@@H](CC(=O)O)C(=O)N[C@H]1CCC(=O)NCCCC[C@@H](C(=O)N[C@@H](CCC(=O)O)C(=O)N[C@@H](Cc2ccccc2)C(=O)N[C@H](C(=O)N[C@@H](CC(N)=O)C(=O)N[C@@H](Cc2c[nH]c3ccccc23)C(=O)N[C@@H](CC(C)C)C(=O)N[C@@H](CC(C)C)C(=O)N[C@@H](C)C(=O)NCC(=O)NCC(=O)N2CCC[C@H]2C(=O)N[C@@H](CO)C(=O)N[C@@H](CO)C(=O)NCC(=O)N[C@@H](C)C(=O)N2CCC[C@H]2C(=O)N2CCC[C@H]2C(=O)N2CCC[C@H]2C(=O)N[C@@H](CO)C(N)=O)C(C)C)NC(=O)[C@H](C)NC(=O)[C@H](C)NC(=O)[C@H](CCC(N)=O)NC1=O
B6: mt-139 (peptide)
peptide: YSQGTFTSDYSKYLDEQAAKEFIAWLLAGGPSSGAPPPS-NH2
modifications: lactam 16-20; N-terminus assumed
SMILES: CC[C@H](C)[C@H](NC(=O)[C@H](Cc1ccccc1)NC(=O)[C@H](CCC(=O)O)NC(=O)[C@@H]1CCCCNC(=O)CC[C@H](NC(=O)[C@H](CC(=O)O)NC(=O)[C@H](CC(C)C)NC(=O)[C@H](Cc2ccc(O)cc2)NC(=O)[C@H](CCCCN)NC(=O)[C@H](CO)NC(=O)[C@H](Cc2ccc(O)cc2)NC(=O)[C@H](CC(=O)O)NC(=O)[C@H](CO)NC(=O)[C@@H](NC(=O)[C@H](Cc2ccccc2)NC(=O)[C@@H](NC(=O)CNC(=O)[C@H](CCC(N)=O)NC(=O)[C@H](CO)NC(=O)[C@@H](N)Cc2ccc(O)cc2)[C@@H](C)O)[C@@H](C)O)C(=O)N[C@@H](CCC(N)=O)C(=O)N[C@@H](C)C(=O)N[C@@H](C)C(=O)N1)C(=O)N[C@@H](C)C(=O)N[C@@H](Cc1c[nH]c2ccccc12)C(=O)N[C@@H](CC(C)C)C(=O)N[C@@H](CC(C)C)C(=O)N[C@@H](C)C(=O)NCC(=O)NCC(=O)N1CCC[C@H]1C(=O)N[C@@H](CO)C(=O)N[C@@H](CO)C(=O)NCC(=O)N[C@@H](C)C(=O)N1CCC[C@H]1C(=O)N1CCC[C@H]1C(=O)N1CCC[C@H]1C(=O)N[C@@H](CO)C(N)=O
B7: mt-155 (peptide)
peptide: YSQGTFTSDYSKYLDEQAAKEFVNWLLAGGPSSGAPPPS-NH2
modifications: lactam 12-16; N-terminus assumed
SMILES: CC(C)C[C@H](NC(=O)[C@H](CC(C)C)NC(=O)[C@H](Cc1c[nH]c2ccccc12)NC(=O)[C@H](CC(N)=O)NC(=O)[C@@H](NC(=O)[C@H](Cc1ccccc1)NC(=O)[C@H](CCC(=O)O)NC(=O)[C@H](CCCCN)NC(=O)[C@H](C)NC(=O)[C@H](C)NC(=O)[C@H](CCC(N)=O)NC(=O)[C@@H]1CCC(=O)NCCCC[C@H](NC(=O)[C@H](CO)NC(=O)[C@H](Cc2ccc(O)cc2)NC(=O)[C@H](CC(=O)O)NC(=O)[C@H](CO)NC(=O)[C@@H](NC(=O)[C@H](Cc2ccccc2)NC(=O)[C@@H](NC(=O)CNC(=O)[C@H](CCC(N)=O)NC(=O)[C@H](CO)NC(=O)[C@@H](N)Cc2ccc(O)cc2)[C@@H](C)O)[C@@H](C)O)C(=O)N[C@@H](Cc2ccc(O)cc2)C(=O)N[C@@H](CC(C)C)C(=O)N[C@@H](CC(=O)O)C(=O)N1)C(C)C)C(=O)N[C@@H](C)C(=O)NCC(=O)NCC(=O)N1CCC[C@H]1C(=O)N[C@@H](CO)C(=O)N[C@@H](CO)C(=O)NCC(=O)N[C@@H](C)C(=O)N1CCC[C@H]1C(=O)N1CCC[C@H]1C(=O)N1CCC[C@H]1C(=O)N[C@@H](CO)C(N)=O

biological target: GLP-1 receptor (UniProt P43220 24-463, limits assumed); experiment: cell-based or functional assay

EC50	relative activity	Binder
0.126 nM		B1
9.94 nM		B2
0.041 nM	163%	B3
0.055 nM		B4
13.1 nM		B5
0.142 nM		B6
0.025 nM		B7

biological target: T1, GIP receptor; experiment: cell-based or functional assay

EC50	relative activity	Binder
0.852 nM		B1
1.09 nM		B2
0.132 nM	36.4%	B3
0.518 nM		B4
0.391 nM		B5
0.569 nM		B6
0.665 nM		B7
